Where a chain is given by its changes, count along the chain named. Values belong to the binder of their own block, whether it stands above or below them.
Columns and labels:
[1] = biological target: T1, human IL6R (human, UniProt P08887 20-358, limits assumed); assay: SPR (Biacore), periplasmic extract
T1 construct: Antigen of the Biacore experiments
T1 sequence (looked up): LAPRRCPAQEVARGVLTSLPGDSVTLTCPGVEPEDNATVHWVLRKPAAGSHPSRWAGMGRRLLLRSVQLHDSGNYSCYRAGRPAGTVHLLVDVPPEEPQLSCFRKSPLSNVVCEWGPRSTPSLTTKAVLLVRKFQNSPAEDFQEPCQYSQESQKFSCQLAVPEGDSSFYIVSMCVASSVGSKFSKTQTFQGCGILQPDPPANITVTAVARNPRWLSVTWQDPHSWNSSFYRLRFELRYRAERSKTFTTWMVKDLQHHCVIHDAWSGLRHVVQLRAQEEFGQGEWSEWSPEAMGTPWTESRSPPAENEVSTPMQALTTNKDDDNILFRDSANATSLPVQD
Procedure: The oligos were dissolved in H₂O and subsequently pooled at a final concentration of 0.4 uM for each oligo. 5 and 1 ul of this mixture was used for assembly PCR in a 50 ul reaction volume. Full-length product was purified using the Qiagen PCR purification kit. The purified PCR product was then digested with SfiI and BsteEII and ligated into the corresponding sites of expression vector pAX51. E. coli TG1 cells were transformed with 2 ul of ligation mixture and plated on LB agar+100 ug/ml ampicillin+2% glucose. Plates were incubated overnight at 37° C. Individual colonies were picked and grown overnight in 2×YT+100 ug/ml ampicillin+2% glucose. Cloned Nanobody genes were amplified directly from these cultures with M13 forward and reverse primers. PCR products were purified and subsequently sequenced. In parallel the same panel of Nanobodies was expressed at 1 ml scale for 4 hours at 37° C. Periplasmic extracts were prepared and without further purification analyzed on Biacore for their ability to bind human IL6R.

[2] = biological target: T1, human IL6R; assay: SPR (Biacore), periplasmic extract

B1: 32C9PMP1_A1 (VHH, name in Kabat numbering)
VHH: EVQLVESGGGLVQAGGSLRLSCAASGFTFSDYDIGWVRQAPGKEREWVSGISSSDGNTYYADSVKGRFTISSDNAKNTLYLQMNSLRPEDTAVYYCAAEPPDSSWYLDGSPEFFKYWGQGTLVTVSS
notes: Humanized 32C9 variant
koff [1]: 0.00515 s⁻¹

B2: 32C9PMP2_F5 (VHH, name in Kabat numbering)
VHH: B1 VHH with A14P, S30D, V37F, R87K, P88A, A98R
notes: Humanized 32C9 variant
binding result [2]: no binding

B5: 32C9PMP1_G5 (VHH, name in Kabat numbering)
VHH: B1 VHH with A14P, S30D, V37F, R45L, W47G, S72R
notes: Humanized 32C9 variant
koff [1]: 0.00116 s⁻¹

B7: 32C9PMP2_C6 (VHH, name in Kabat numbering)
VHH: B1 VHH with E44G, L122Q
notes: Humanized 32C9 variant
koff [1]: 0.00426 s⁻¹

B11: 32C9PMP1_E7 (VHH, name in Kabat numbering)
VHH: B1 VHH with S30D, V37F, E44G, W47G, R87K, P88A
notes: Humanized 32C9 variant
koff [1]: 0.000187 s⁻¹

B14: 32C9PMP2_D5 (VHH, name in Kabat numbering)
VHH: B1 VHH with A14P, S30D, R45L, W47G, S72R, L79V, R87K, P88A, A98R
notes: Humanized 32C9 variant
binding result [2]: no binding

B16: 32C9PMP1_G8 (VHH, name in Kabat numbering)
VHH: B1 VHH with A14P, V37F, E44G, W47G, L79V, R87K, P88A, A98R
notes: Humanized 32C9 variant
binding result [2]: no binding

B19: 32C9PMP2_A10 (VHH, name in Kabat numbering)
VHH: B1 VHH with E44G, W47G, S72R, R87K, P88A, A98R, L122Q
notes: Humanized 32C9 variant
binding result [2]: no binding

B21: 32C9PMP2_A5 (VHH, name in Kabat numbering)
VHH: B1 VHH with A14P, S30D, E44G, W47G, L79V, A98R
notes: Humanized 32C9 variant
binding result [2]: no binding

B23: 32C9PMP2_E1 (VHH, name in Kabat numbering)
VHH: B1 VHH with A14P, S30D, V37F, R45L, W47G, L79V, L122Q
notes: Humanized 32C9 variant
koff [1]: 0.00166 s⁻¹

B24: 32C9PMP2_C10 (VHH, name in Kabat numbering)
VHH: B1 VHH with A14P, S30D, E44G, W47G, R87K, P88A, A98R
notes: Humanized 32C9 variant
binding result [2]: no binding

B30: Nanobody 32C9 (VHH)
VHH: B1 VHH with S30D, V37F, W47G, L79V, R87K, L122Q
notes: Tested as periplasmic extract; also called 32C9 WT; IL6R04
koff [1]: 0.000162 s⁻¹

B32: 32C9PMP1_B5 (VHH, name in Kabat numbering)
VHH: B1 VHH with A14P, V37F, S72R, L122Q
notes: Humanized 32C9 variant
koff [1]: 0.00196 s⁻¹

B34: 32C9PMP2_E7 (VHH, name in Kabat numbering)
VHH: B1 VHH with V37F, S72R, A98R
notes: Humanized 32C9 variant
binding result [2]: no binding

B37: 32C9PMP2_D8 (VHH, name in Kabat numbering)
VHH: B1 VHH with A14P, V37F, W47G, S72R, L79V, R87K, P88A, A98R, L122Q
notes: Humanized 32C9 variant
binding result [2]: no binding

B38: 32C9PMP2_C12 (VHH, name in Kabat numbering)
VHH: B1 VHH with S30D, R87K, P88A, A98R
notes: Humanized 32C9 variant
binding result [2]: no binding

B39: 32C9PMP1_D4 (VHH, name in Kabat numbering)
VHH: B1 VHH with V37F, E44G, W47G, R87K, P88A, L122Q
notes: Humanized 32C9 variant
koff [1]: 0.000196 s⁻¹

B40: 32C9PMP2_F12 (VHH, name in Kabat numbering)
VHH: B1 VHH with S30D, E44G, W47G
notes: Humanized 32C9 variant
koff [1]: 0.000584 s⁻¹

B41: 32C9PMP2_B3 (VHH, name in Kabat numbering)
VHH: B1 VHH with V37F, W47G, S72R, L79V, R87K, P88A
notes: Humanized 32C9 variant
koff [1]: 0.000308 s⁻¹

B45: 32C9PMP2_D9 (VHH, name in Kabat numbering)
VHH: B1 VHH with A14P, V37F, E44G, W47G, L79V, A98R
notes: Humanized 32C9 variant
binding result [2]: no binding

B46: 32C9PMP2_C4 (VHH, name in Kabat numbering)
VHH: B1 VHH with S30D, V37F, L79V, R87K, P88A, A98R
notes: Humanized 32C9 variant
binding result [2]: no binding

B48: 32C9PMP2_A12 (VHH, name in Kabat numbering)
VHH: B1 VHH with S30D, V37F, R45L, W47G, L79V, R87K, P88A, L122Q
notes: Humanized 32C9 variant
koff [1]: 0.0029 s⁻¹

Next, values leading:

koff [1]: 0.00121 s⁻¹
B3: 32C9PMP2_E2 (VHH, name in Kabat numbering)
VHH: B1 VHH with A14P, V37F, R45L, W47G, R87K, P88A, L122Q
notes: Humanized 32C9 variant

binding result [2]: no binding
B4: 32C9PMP2_E6 (VHH, name in Kabat numbering)
VHH: B1 VHH with A14P, V37F, W47G, S72R, L79V, R87K, P88A, A98R
notes: Humanized 32C9 variant

koff [1]: 0.0138 s⁻¹
B6: 32C9PMP2_C3 (VHH, name in Kabat numbering)
VHH: B1 VHH with R87K, P88A, L122Q
notes: Humanized 32C9 variant

koff [1]: 0.000197 s⁻¹
B8: 32C9PMP2_G12 (VHH, name in Kabat numbering)
VHH: B1 VHH with V37F, E44G, W47G, S72R, R87K, P88A, L122Q
notes: Humanized 32C9 variant

koff [1]: 0.00189 s⁻¹
B9: 32C9PMP1_F8 (VHH, name in Kabat numbering)
VHH: B1 VHH with V37F, R87K, P88A
notes: Humanized 32C9 variant

koff [1]: 0.000205 s⁻¹
B10: 32C9PMP1_E1 (VHH, name in Kabat numbering)
VHH: B1 VHH with V37F, E44G, W47G, S72R, R87K, P88A
notes: Humanized 32C9 variant

koff [1]: 0.000204 s⁻¹
B12: 32C9PMP1_G11 (VHH, name in Kabat numbering)
VHH: B1 VHH with V37F, E44G, W47G, L79V
notes: Humanized 32C9 variant

binding result [2]: no binding
B13: 32C9PMP1_H8 (VHH, name in Kabat numbering)
VHH: B1 VHH with S30D, E44G, W47G, S72R, A98R
notes: Humanized 32C9 variant

binding result [2]: no binding
B15: 32C9PMP2_F2 (VHH, name in Kabat numbering)
VHH: B1 VHH with S30D, A98R
notes: Humanized 32C9 variant

koff [1]: 0.0052 s⁻¹
B17: 32C9PMP1_C5 (VHH, name in Kabat numbering)
VHH: B1 VHH with S30D, R45L, W47G, L79V
notes: Humanized 32C9 variant

koff [1]: 0.000792 s⁻¹
B18: 32C9PMP2_A7 (VHH, name in Kabat numbering)
VHH: B1 VHH with E44G, W47G, S72R, R87K, P88A
notes: Humanized 32C9 variant

koff [1]: 0.000247 s⁻¹
B20: P32C9PMP2_E12 (VHH, name in Kabat numbering)
VHH: B1 VHH with S30D, V37F, E44G, W47G, S72R, L79V
notes: Humanized 32C9 variant

koff [1]: 0.00346 s⁻¹
B22: 32C9PMP1_B3 (VHH, name in Kabat numbering)
VHH: B1 VHH with A14P, S30D, R45L, W47G
notes: Humanized 32C9 variant

binding result [2]: no binding
B25: 32C9PMP1_G9 (VHH, name in Kabat numbering)
VHH: B1 VHH with A14P, S30D, R45L, W47G, L79V, R87K, P88A, A98R
notes: Humanized 32C9 variant

binding result [2]: no binding
B26: 32C9PMP1_H6 (VHH, name in Kabat numbering)
VHH: B1 VHH with A14P, S30D, V37F, R45L, W47G, S72R, R87K, P88A, A98R, L122Q
notes: Humanized 32C9 variant

koff [1]: 0.0007 s⁻¹
B27: 32C9PMP2_G4 (VHH, name in Kabat numbering)
VHH: B1 VHH with S30D, E44G, W47G, S72R, R87K, P88A, L122Q
notes: Humanized 32C9 variant

binding result [2]: no binding
B28: 32C9PMP1_H1 (VHH, name in Kabat numbering)
VHH: B1 VHH with A14P, E44G, W47G, S72R, L79V, R87K, P88A, A98R, L122Q
notes: Humanized 32C9 variant

koff [1]: 0.000187 s⁻¹
B29: 32C9PMP1_H4 (VHH, name in Kabat numbering)
VHH: B1 VHH with A14P, V37F, E44G, W47G, R87K, P88A, L122Q
notes: Humanized 32C9 variant

koff [1]: 0.000192 s⁻¹
B31: 32C9PMP2_A2 (VHH, name in Kabat numbering)
VHH: B1 VHH with A14P, V37F, E44G, W47G, S72R, R87K, P88A, L122Q
notes: Humanized 32C9 variant

koff [1]: 0.00564 s⁻¹
B33: 32C9PMP2_B12 (VHH, name in Kabat numbering)
VHH: B1 VHH with A14P, V37F, L79V, R87K, P88A, L122Q
notes: Humanized 32C9 variant

koff [1]: 0.00768 s⁻¹
B35: 32C9PMP2_B11 (VHH, name in Kabat numbering)
VHH: B1 VHH with S30D, L122Q
notes: Humanized 32C9 variant

koff [1]: 0.000804 s⁻¹
B36: 32C9PMP2_F3 (VHH, name in Kabat numbering)
VHH: B1 VHH with S30D, E44G, W47G, L79V, R87K, P88A
notes: Humanized 32C9 variant

binding result [2]: no binding
B42: 32C9PMP2_B4 (VHH, name in Kabat numbering)
VHH: B1 VHH with A14P, S30D, V37F, R45L, W47G, L79V, A98R, L122Q
notes: Humanized 32C9 variant

koff [1]: 0.00707 s⁻¹
B43: 32C9PMP2_D10 (VHH, name in Kabat numbering)
VHH: B1 VHH with A14P, R45L, W47G, L79V
notes: Humanized 32C9 variant

binding result [2]: no binding
B44: 32C9PMP2_B7 (VHH, name in Kabat numbering)
VHH: B1 VHH with V37F, E44G, W47G, S72R, R87K, P88A, A98R
notes: Humanized 32C9 variant

koff [1]: 0.000803 s⁻¹
B47: 32C9PMP2_B5 (VHH, name in Kabat numbering)
VHH: B1 VHH with E44G, W47G, L79V
notes: Humanized 32C9 variant

koff [1]: 0.000982 s⁻¹
B49: 32C9PMP1_E6 (VHH, name in Kabat numbering)
VHH: B1 VHH with E44G, W47G, L79V, R87K, P88A
notes: Humanized 32C9 variant
